Results as given in a protein production outcome set (Wang et al. 2014).

Assay: label from the status in PepcDB records

| Sequence | protein production |
| --- | --- |
| MVQIQGCVVAAALCAVITLIAMQWLMAFDAANLVMLYLLGVVVVALFYGRWPSVVATVINVVSFDLFFIAPRGTLAVSDVQYLLTFAVMLTVGLVIGNLTAGVRYQA | not failed |
| MVQMNNFLFDAQNIATPLMLVDLDDTLFQTHRRIVPQTDFKMVTTDKQGQALAYMNPIQQHFVQWLLHSTHLIPVTARSAEALSRVHLPFQYGAVCSHGGTVLNPDFSVNVDWHVQMQQALTSYQERQQILIDALQQQAINFGSIRTWVVEEQGLGLYIVAKQNTENDNPYAPNFLPELLNSLSSEVLEGFYFHLNGNNLALIPQPVSKANAARFVLQQFASQQRPILGFGDSLSDVEFLNLCHWWGMPNHSQLNRWVKHNLTQQYKQEGFYGDYQ | failed |
| MVQSQSLSTLTICGSVKVSSLLRNRLNSVKASSLIGDRCVSCQFLRKSPSFRSHWKSLKQRNLLRVEARWPFQGGGEQGLDPSSERSESANEDILIFFFQLDLATRVQVKTKCRVFISFKMVANGFDVLQY | failed |
| MVRCVRLVEAGSVVRYLSTSICRPVVDAGSRALCLQEWADSQQVKEKQYSRDVQRAAALNIYRIPPSSRKPALCPTPRDRLEYDEDRLEHIAYVRARELHTLEVTGLETVAQSKAHVASLEGLIPEDKVVLLAGSPLQNEATLGQCGVEALTTLEVVGRRLGGNNCLSLQVNPVQPARYLWTTLHSSKQGEPNSSANHRCS | failed |
| MVRDIEDEIRDEKNPRPLDEDDIALLKTYGLGPYSAPIKKVEKEIKDLAKKINDLCGIKESDTGLAPPSQWDLVSDKQMMQEEQPLQVARCTKIISPNTEDAKYVINVKQIAKFVVGLGDKVSPTDIEEGMRVGVDRNKYQIQIPLPPKIDPSVTMMTVEEKPDVTYNDVGGCKEQIEKMREVVELPMLHPEKFVKLGIDPPKGVLCYGPPGTGKTLLARAVANRTDACFIRVIGSELVQKYVGEGARMVRELFQMARSKKACIVFFDEVDAIGGARFDDGVGGDNEVQRTMLEIVNQLDGFDARGNIKVLMATNRPDTLDPALLRPGRLDRKVEFGLPDLESRTQIFKIHTRTMNCERDIRFELLARLCPNSTGADIRSVCTEAGMYAIRARRKTVTEKDFLDAVNKVIKGYQKFSATPKYMVYN | failed |
| MVRETYALLTGLFVVILGSALIGIALVLGDYGTERDVYVVSTQGAVSGLNPESLVIFRGVRAGKVASISFAPHDPRTILVRIEVDKGLPITRGTYATLRVQPLTGLAQIDLSDEGNDPEPLRTDPRNPANIPLRPSLLDKLTGSGSDILTQIAQLTSRLNALLDDGNRQRIAHTLESLDTAADELVRLERYIEEGLERIPILDGRLRQALADHSAMARDVRETSRQVRALSESAQKVVDIGAAASDTLIRSRLPELDALIDDAAHTAASLRRLSKTLERDPQTLLLGPAPGLPGPGEPGFQEPK | failed |
| MVRLLHVSFVSHGAAWLPIHSCTGSHGQCERRAAGGPEAWATTPSLAAMPIDTRARQPSCDNRVMNDAALAPDVSAALERGLQAQSLDTAFAAPLLRYLALLVRWNKTYNLTAVRDPRAMVTRHLLDSLAMQPYIASGMLADLGTGPGLPGIPLAITRPQLQVTLVESNGKKARFMREALRHLELRNARVAESRAEALDEPTAYDHLTARALDTLAGIIAVGGHLLRPGGSLLAMKGIYPHEEIAALPEGWTMSEVHQLQVPGLDGERHLVVVRKA | failed |
| MVRRLTNGRWGLTLLILALMYIIALGLMARPAAADPGITLVLNGSRVNPSVPAYTDSNGRTMVPVRFVMEHMGGRVEWLDAEQGIVVSRGATTLKMWIGKRQAQVNGQAIDLDTVPVLQDGTSMVPVRFVAQAFGGKVEWDDASRTVSIWLGTASPAGQVRITGSYVNVRTGPGTSYGVIDVLPRDTLVQLLATGDGWYQVQLPDGRQGWVSASYSEVLQGNNQPQDTNPPGNNQPGNGQSPGNNPSPGNNQPGNEEPPSGQPLGTAIIGNKPVAILAGPNPVEKQVGMAPAGSRLPIWQQQGDWWLVELDNGLRGWLASSLATFSPEKPGQDNGGSETGNGGTAPGEGNQGVGNSDSNSLKITGVTVNPGPDWIEVTVQGTRPFTFKSSRWADHLIFDIPGATLAVAPGQDKVEVNRQPLARVRLGQYDANTVRVVCDLNGAANFTTTTAGSTITIRLQKPSVRGAKIVIDPGHGTDPQGSDPGAIGPSGVQEKDVNLAISRKLAELLRAAGATVYMTRDGETTPYTLSGRAYYANEVGADLFICIHSNASLSPSASGTSTYFYAPPGTALGEQRDARQRLATLIQRDLVAAIGRRDLGVKEANFAVLRNTKMPSVLVETAFISNPTEEQLLASPDFQALVAQGIFNGISDYLSGQ | failed |
| MVSCSNQQTQTKAITVSDTTLLSAEEFSQKIKKEPNALILDVRTPEEFSEAHIANATNVNWKDNFASGITEVNKNQPVLVYCLSGGRSASASDYLRKNGYTQVYELQGGLLKWQASNFEVVADTVTAAQDSGMTLQQFEALLVTDKYVLIDFYATWCGPCKMMEPALEDIAATMSDKVIVVRIDVDKNEELSKHFEVESLPTVQIYKNKKLVWEDIGYKTKKQLVSQLK | failed |
| MVSDWLLLAPPAAFITAALALFVVDAISSDETSGWLLSGVTTAGGLAAAAIAGVLLLSETAAGGVELFGGQLVVDGMSLLFTFIFGSVTALVAVASLDYIRDLPHKAEYYLLISLAATGMSLMASANSLVVVFISLELASLPSYALVAYLKNNRGSVEAGLKYFLIGALSSGIMLYGISLIYATTGSFLLGDIAASVGEAASTHPGVFGVGLLMVIGGFAFKTASVPFHFWAPDAYEGAPAPVAAFLSSASKAAGFVIAFRVLLVGFPIQEVAATVDWVLLFQILAVVTMTVGNFAAATQSNVKRMLAYSSIGHAGYVLIGLAALTNVGGPTAEATVLGASMLHLLVYGFMNTGAFLFVAMVEHWDVGRTFEDYNGLAREAPLACVAMTIFLFSLAGLPVGGGFLSKYYLVVGAVGTGVWWLAVVLAINSALSLYYYSRVVKAMWIESPAESLTIERYPTALYAAVMAAAAVTVLLLPGLFVFDGAAFDAAAALL | failed |
| MVSFVFNGGALWSVLLLALRKRRFNVDPAMMAMTIAIYAYCAANLVASIVNSAIARDALHLIPLVTFLFFPISYSTWSITQKTTLVRIIVLSSMAACFVALLLAVFQQHWLGMRAEGGAGNAIVFAEVLCLAVLVCVAGALSDIERHRIALLCAALGGTIAIIYSGTRIVWLALLIAGIAVLLINQHRLKGRNAIRLLVLLLAAGAVIAAVGFQTISGRVDFLRSDLDALAVNGDHTTAIGLRLAVWDIGLKAFREMPLFGHGVGATQALIKQGFHDQFGMDAGFNHFHNGFLTALVQAGLLGAVTLAAMFVVAARNAAVVLRNSTDPIERFGATMIVIMVITYLTSGMTGILIGHDILDSVLMVFLVSGTYLASGRQAPLPQDQALPPETEERAPAPVAEDALLPGMENRALRLTQ | failed |
| MVSIDTLIFQALNSSKFHPLYSPSINSINLQDDWAEKEGKEELSSILLLHRKASPPPPISALPNRNHKLQPLNLLFIDFPGQSFQQRERFRQFTASVRVYYVNDRKLNVQEGALIFFVRGVRYSLPLRELCDIYGFDNDLIGVALPGQFKDAQIFWSRFSNGIYDSKDAVHSEIRHLVLRYLVRLISSTLFCKMEPGKMRLSELLVLYHVVHDFFPDSLRFEEVDRDVNVGAVFAHHLVSLKTKPFTGRGKKLERVGSLLTPIFEHFRISFEGEELPCTALTKITSEHEELSFCPDPSLMHAAPRTRRHRGLASRSAPTQTEDEFIDPAEGLRVGSSSSALPYQLPSPPPIPMEPHVFQQYVVDSFKSVWNAIATLSR | failed |
| MVSIIIPIYNVQDYINDCLYSVYTQTYSEIEVILVNDCTPDNSMLIAHSNIEKLKKRFNVKIIDHKSNKGLSAARNSGVKEATGEWVYFLDSDDEITPDCIECFVRLAERYLSVDFIVGGIRVIGRNISYRLTTSEYVIGNDNILKCYISGMWYEMAWNKLIRKEYFVSNNLWFKEGLLHEDQLFSYQLATTALTMATVNKPTYIYKMRMSGAITSSNGRKNFDSFICILEYMVYSVMQKYSTSSVTLEYAQIIRFSYSILLSLYGKHNLTEMEVVNYELKVDRICRIVTFYKCKLPVPIQIKLTIIKLPQTMRKVLLKWHNKKIQKKLEHHHHHH | not failed |
